Values joined by “and” are separate entries in the source; they are usually repeats but may differ in a detail not shown here. Equal values may be shown once.
Assays:
[1] = molecular target: Pt-Get3a (full-length, amino acids 1–349), purified, His-tag cleaved (Phaeodactylum tricornutum); assay: SAXS; HPLC with online size exclusion column, beamline BL23A1 (NSRRC), proteins ~5 mg/mL; P2 symmetry for the dimer, p222 for the Pt-Get3a/TA complex
[2] = molecular target: Pt-Get3a (full-length, amino acids 1–349), purified, His-tag cleaved (Phaeodactylum tricornutum); assay: SEC; purified Pt-Get3a alone; NaCl increased to 500 mM; peak at ~78 mL
[3] = molecular target: Pt-Get3a (full-length, amino acids 1–349), purified, His-tag cleaved (Phaeodactylum tricornutum); assay: SEC; purified Pt-Get3a (after TEV cleavage of the 6His-tag) or its mutants alone; near physiological saline, ~100 mM NaCl; tetramer-dimer equilibrium
[4] = molecular target: Pt-Get3a L283D_I290D, purified (Phaeodactylum tricornutum); assay: as above
[5] = molecular target: Pt-Get3a wild type, co-expressed with His-tagged TA protein (Phaeodactylum tricornutum); assay: SEC; Pt-Get3a/TA complex co-expressed and co-purified by Ni-NTA, then Superdex-200; ~100 mM NaCl and, as a control, 500 mM NaCl; fractions on SDS-PAGE
[6] = molecular target: Pt-Get3a wild type, co-expressed with His-tagged TA protein (Phaeodactylum tricornutum); assay: SAXS; HPLC with online size exclusion column, beamline BL23A1 (NSRRC), proteins ~5 mg/mL; P2 symmetry for the dimer, p222 for the Pt-Get3a/TA complex

“Pt-Get3a (full-length, amino acids 1–349), purified, His-tag cleaved (natural protein)” was tested, and the stoichiometry N [1] was 2, the stoichiometry N [2] was 2 and the stoichiometry N [3] was 4.

Work on “Pt-Get3a L283D_I290D, purified (natural protein)” yielded a stoichiometry N [4] of 2.

In the case of “Pt-Get3a wild type, co-expressed with His-tagged TA protein (natural protein)”, the stoichiometry N [5] is reported as 4 and 2 and the stoichiometry N [6] is reported as 4.
